From patent US20110027820A1

Target: Gal4 DNA binding domain (DBD) fused to the RXR ligand binding domain (GBD:RXR) (yeast; human) (UniProt P04386)
Assay: cell-based or functional assay

“human nuclear receptor coactivator ACTR fused to the yeast Gal4 activation domain (ACTR:GAD) (from UniProt Q9Y6Q9 1-1424)” showed an increase in the sensitivity of chemical complementation (yeast growth in response to 9cRA) against GBD:RXR alone of 1000 fold.
